In article PMC12274486, “A glyoxal-specific aldehyde signaling axis in Pseudomonas aeruginosa that influences quorum sensing and infection” (Nature Communications, 2025):
Where “and” joins values, the source holds several entries; their conditions need not be identical. Equal values may be shown once.

What was measured:
[1] = target: T1, PqsA (PqsAFL) (Pseudomonas aeruginosa, UniProt Q9I4X3); assay: anthraniloyl-CoA formation, absorbance at […] nm; format: biochemical; conditions: assay with added ArqI
T1 construct: full length, expressed in E. coli T7 Express with 6x-His-CPD tag, tag cut

[2] = target: T2, ArqI (PA0709), Aldehyde responsive quorum-sensing Inhibitor (Pseudomonas aeruginosa, UniProt Q9I5L9); assay: X-ray crystallography and mass spectrometry of Arg49 adduct; format: binding; conditions: covalent; Arg49 in chains C, D, E; hemiaminal or carboxymethylarginine adduct (+58 amu)
T2 construct: full length (98 residues), expressed in E. coli as His6-SUMO fusion, SUMO tag cut, N-terminal SGGG left; hexamer; numbering from Met1

[3] = target: T3, PqsA full-length protein, purified (Pseudomonas aeruginosa MPAO1, UniProt Q9I4X3 1-517); assay: other fluorescence titration; conditions: both partners purified
T3 construct: also called PqsAFL; FL
T3 sequence: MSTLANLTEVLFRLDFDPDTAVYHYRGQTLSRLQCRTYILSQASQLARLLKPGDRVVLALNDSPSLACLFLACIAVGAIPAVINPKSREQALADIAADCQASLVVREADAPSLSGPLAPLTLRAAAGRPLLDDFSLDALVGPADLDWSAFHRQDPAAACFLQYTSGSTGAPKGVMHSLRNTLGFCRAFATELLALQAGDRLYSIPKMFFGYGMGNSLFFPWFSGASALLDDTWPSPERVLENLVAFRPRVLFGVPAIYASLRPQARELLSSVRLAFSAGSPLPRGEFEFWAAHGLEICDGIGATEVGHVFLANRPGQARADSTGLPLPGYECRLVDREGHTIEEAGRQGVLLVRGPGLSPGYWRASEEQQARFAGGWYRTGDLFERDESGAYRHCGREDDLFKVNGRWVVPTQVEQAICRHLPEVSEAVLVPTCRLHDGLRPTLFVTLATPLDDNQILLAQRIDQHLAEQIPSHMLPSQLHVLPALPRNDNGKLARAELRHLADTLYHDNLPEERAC

[4] = target: the molecule itself; assay: crystal structure; native ArqI, crystals from 50 mM sodium acetate pH 5.0, 12% PEG 4000; C 222_1 cell, 6 subunits in the asymmetric unit, 2.0 Å
[5] = target: the molecule itself; assay: crystal structure
[6] = target: the molecule itself; assay: SEC; HiLoad Superdex 75 16/600 pg or Superose 6 Increase 10/300 GL; 2 mL at 10 mg/mL; 50 mM Tris-Cl pH 8.0, 150 mM NaCl, 1 mM βME (a buffer with 500 mM NaCl, pH 7.4, is also named); RT

CC(C)(COP(=O)(O)OP(=O)(O)OC[C@H]1O[C@@H](n2cnc3c(N)ncnc32)[C@H](O)[C@@H]1OP(=O)(O)O)[C@@H](O)C(=O)NCCC(=O)NCCS [CoA, coenzyme A]
anthraniloyl-CoA formation, absorbance at 375 nm ([1]; with anthranilate and ATP): purified PqsA protein with CoA, ATP, and anthranilate

O=CC=O [GO, glyoxal]
X-ray crystallography and mass spectrometry of Arg49 adduct [2]: A glyoxal modification was observed on Arg49 for three subunits (chains C, D and E)

Nc1ccccc1C(=O)O [anthranilate]
anthraniloyl-CoA formation, absorbance at 375 nm ([1]; with CoA and ATP): purified PqsA protein with CoA, ATP, and anthranilate

B1: Aldehyde responsive quorum-sensing Inhibitor (ArqI), wild type, purified (natural protein)
chain: SGGGMTYHVLVQFDVPSDKREAFAAAGLFDANGSLQNEPGTLRFEVIRDENNRNRFYLDEVYEDEAAFLQHCRNETIARFYELIDSYAFGPLFLFKGYRVEG
notes: also called PA0709; WT ArqI
Kd [3]: 43 µM | stoichiometry N [4]: 6

B2: ArqI R16A variant, purified (natural protein)
chain: SGGGMTYHVLVQFDVPSDKAEAFAAAGLFDANGSLQNEPGTLRFEVIRDENNRNRFYLDEVYEDEAAFLQHCRNETIARFYELIDSYAFGPLFLFKGYRVEG
modifications: in the crystal: βME-modified Cys68
notes: source: E. coli, purified as the wild type (Ni-NTA, ULP1 cleavage, SEC)
stoichiometry N [5]: 6 | stoichiometry N [6]: 2

B3: ArqI R49Q variant, purified (natural protein)
chain: SGGGMTYHVLVQFDVPSDKREAFAAAGLFDANGSLQNEPGTLRFEVIRDENNQNRFYLDEVYEDEAAFLQHCRNETIARFYELIDSYAFGPLFLFKGYRVEG
notes: source: E. coli, purified as the wild type
stoichiometry N [6]: 6 and 2

B4: ArqI P87G variant, purified (natural protein)
chain: SGGGMTYHVLVQFDVPSDKREAFAAAGLFDANGSLQNEPGTLRFEVIRDENNRNRFYLDEVYEDEAAFLQHCRNETIARFYELIDSYAFGGLFLFKGYRVEG
notes: as for B3
stoichiometry N [6]: 2
